# Values joined by “and” are separate entries in the source; they are usually repeats but may differ in a detail not shown here. Equal entries are not always repeated.
# How the values were obtained:
# zebavidin [1] = target: T1, zebavidin (Danio rerio, UniProt E7F650); assay: crystal structure at […] Å; direct and competitive ITC ([…] °C); [3H]biotin dissociation; native MS; DSC; format: binding; design: gene avd; first 30 amino acids of the ORF replaced with OmpA signal peptide from Bordetella avium (secreted core); homotetramer
# T1 sequence (E7F650 31-154): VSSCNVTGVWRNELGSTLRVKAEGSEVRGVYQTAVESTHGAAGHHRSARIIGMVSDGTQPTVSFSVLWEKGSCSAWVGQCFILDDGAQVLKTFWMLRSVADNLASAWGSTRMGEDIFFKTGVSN
# zebavidin [2] = target: T1, zebavidin; assay: fluorescence quenching titration ([…] °C); format: binding; design: gene avd; first 30 amino acids of the ORF replaced with OmpA signal peptide from Bordetella avium (secreted core)
# zebavidin [3] = target: T1, zebavidin; assay: ITC ([…] °C); format: binding; design: gene avd; first 30 amino acids of the ORF replaced with OmpA signal peptide from Bordetella avium (secreted core)
# [4] = target: zebavidin (recombinant core, expressed in E. coli) (zebrafish (Danio rerio)); assay: native MS; ESI FT-ICR, 10 µM zebavidin (monomer) in 10 mM ammonium acetate, pH 7, without biotin
# [5] = target: zebavidin (recombinant core, expressed in E. coli) (zebrafish (Danio rerio)); assay: native MS; ESI FT-ICR, 10 µM zebavidin in 10 mM ammonium acetate, pH 7, with 30 µM biotin (3-fold molar excess)
# [6] = target: zebavidin (recombinant core, expressed in E. coli) (zebrafish (Danio rerio)); assay: crystal structure; zebavidin in complex with biotin, 2.4 Å, space group P2(1)2(1)2, 16 monomers (four homotetramers) in the asymmetric unit
# [7] = target: zebavidin (recombinant core, expressed in E. coli) (zebrafish (Danio rerio)); assay: SEC; Superdex200 10/300GL, 4 °C, 50 mM sodium phosphate, 2 mM EDTA, pH 7 with 0, 100 or 650 mM NaCl, with and without biotin
# [8] = target: zebavidin (recombinant core, expressed in E. coli) (zebrafish (Danio rerio)); assay: native MS; ESI FT-ICR, 10 µM zebavidin in 500 mM ammonium acetate, in the absence and presence of 30 µM biotin
molecule,measurement,setting,value
"O=C(O)CCCC[C@@H]1SC[C@@H]2NC(=O)N[C@@H]21 [BTN, biotin]",Kd,zebavidin [1],4.8/4.4 x10^-9 M
ArcDia BF560,Kd,zebavidin [2],140 nM
C[C@@H]1NC(=O)N[C@@H]1CCCCCC(=O)O [desthiobiotin],Kd,zebavidin [3],660/700 x10^-9 M
"zebavidin (recombinant core, expressed in E. coli) (natural protein)",stoichiometry N,[4],2 and 4
same,stoichiometry N,[5],4
same,stoichiometry N,[6],4
same,stoichiometry N,[7],4
same,stoichiometry N,[8],4
